Assays:
MES 13 cells = assay: IL-TIF activation of SRE/STAT luciferase reporter mini-gene in MES 13 cells; type: cell-based, murine; conditions: 4 h
Protocol: MES 13 cells (ATCC No. CRL-1927) were plated at 10,000 cells/well in 96-well tissue culture clusters (Costar) in DMEM growth medium (Life Technologies) supplemented with pyruvate and 10% serum (HyClone). Next day, the medium was switched to serum free DMEM medium by substituting 0.1% BSA (Fraction V; Sigma) for serum. This medium also contained the adenoviral construct KZ136 (below) that encodes a luciferase reporter mini-gene driven by SRE and STAT elements, at a 1000:1 multiplicity of infection (m.o.i.), i.e. 1000 adenoviral particles per cell. After allowing 24 h for the incorporation of the adenoviral construct in the cells, the media were changed and replaced with serum-free media. Human recombinant IL-TIF with or without a recombinant Zcytor16-Fc4 fusion was added at the indicated final concentration in the well (as described in Table 11, below). Dilutions of both the IL-TIF and Zcytor16-Fc4 were performed in serum-free medium. 0.1% BSA was added for a basal assay control. 4 h later, cells were lysed and luciferase activity, denoting activation of the reporter gene, was determined in the lysate using an Luciferase Assay System assay kit (Promega) and a Labsystems Luminoskan luminometer (Labsystems, Helsinki, Finland). Activity was expressed as luciferase units (LU) in the lysate.
The construction of the adenoviral KZ136 vector was as follows. The original KZ136 vector is disclosed in Poulsen, L K et al. J. Biol. Chem. 273:6228-6232, 1998. The CMV promoter/enhancer and SV40 pA sequences were removed from pACCMV.pLpA (T. C. Becker et al., […] 43:161-189, 1994.) and replaced with a linker containing Asp718/KpnI and HindIII sites (oligos ZC13252 (SEQ ID NO:26) and ZC13453 (SEQ ID NO:27)). The STAT/SRE driven luciferase reporter cassette was exised from vector KZ136 (Poulsen, L K et al., supra.).) as a Asp718/KpnI-HindIII fragment and inserted into the adapted pAC vector. Recombinant KZ136 Adenovirus was produced by transfection with JM17 Adenovirus into 293 cells as described in T. C. Becker et al. supra.). Plaque purified virus was amplified and used to infect cultured cells at 5-50 pfu/cell 12-48 hours before assay. Luciferase reporter assays were performed as described in 96 well microplates as per Poulsen, L K et al., supra.).

K-562 cells = assay: K-562 cytotoxicity assay (MTT); type: cell-based, human; conditions: 72 h
Protocol: The K-562 cell line (CRL-243, ATCC) has attained widespread use as a highly sensitive in vitro target for cytotoxicity assays. K-562 blasts are multipotential, hematopoietic malignant cells that spontaneously differentiate into recognizable progenitors of the erythrocytic, granulocytic and monocytic series (Lozzio, B B et al., Proc. Soc. Exp. Biol. Med. 166: 546-550, 1981).
K562 cells were plated at 5,000 cells/well in 96-well tissue culture clusters (Costar) in DMEM phenol-free growth medium (Life Technologies) supplemented with pyruvate and 10% serum (HyClone). Next day, human recombinant IL-TIF (Example 19), BSA control or retinoic acid (known to be cytotoxic to K562 cells) were added. Seventy-two hours later, the vital stain MTT (Sigma, St Louis, Mo.), a widely used indicator of mitochondrial activity and cell growth, was added to the cells at a final concentration of 0.5 mg/ml. […] is converted to a purple formazan derivative by mitochondrial dehydrogenases. Four hours later, converted MMP was solubilized by adding an equal volume of acidic, isopropanol (0.04N HCl in absolute isopropanol) to the wells. Absorbance was measured at 570 nm, with background subtraction at 650 nm. In this experimental setting, absorbance reflects cell viability. Results shown in Table 12 are expressed as % cytotoxicity.

[1] = system: BaF3/mZcytor16-MPL receptor cell line; assay: Proliferation assay with BaF3/mZcytor16-MPL chimera cells; type: cell-based, murine; conditions: in the presence of the correct receptor complex
Protocol: Using standard methods described herein, cells expressing a BaF3/mZcytor16-MPL chimera (wherein the extracellular domain of the mouse Zcytor16 (e.g., amino acids 24 to 230 of SEQ ID NO:38 or SEQ ID NO:48) is fused in frame to the intracellular signaling domain of the mpl receptor) are tested for proliferative response in the presence of IL-TIF. Such cells serve as a bioassay cell line to measure ligand binding of monomeric or homodimeric mouse Zcytor16 receptors. In addition, BaF3/mZcytor16-MPL chimera cells transfected with an additional heterodimeric cytokine receptor subunit can be assessed for proliferative response in the presence of IL-TIF. […] Transfection of the BaF3/MPL-mZcytor16 cell line with and additional MPL-class II cytokine receptor fusion that signals in the presence of the IL-TIF ligand, such as CRF2-4, determines which heterodimeric cytokine receptor subunits are required for mouse Zcytor16 receptor signaling. Use of MPL-receptor fusions for this purpose alleviates the requirement for the presence of an intracellular signaling domain for the mouse Zcytor16 receptor.
Each independent receptor complex cell line is then assayed in the presence of IL-TIF and proliferation measured using routine methods (e.g., Alamar Blue assay). […]

[2] = system: BaF3/CRF2-4/zcytor11 cells; assay: Alamar Blue proliferation assay, IL-TIF activity; type: cell-based, murine; conditions: 3 days + Alamar Blue
Protocol: BaF3/CRF2-4/zcytor11 cells were spun down and washed in the complete media, described in Example 7A above, but without mIL-3 (hereinafter referred to as “mIL-3 free media”). The cells were spun and washed 3 times to ensure the removal of the mIL-3. Cells were then counted in a hemacytometer. Cells were plated in a 96-well format at 5000 cells per well in a volume of 100 μl per well using the mIL-3 free media.
Proliferation of the BaF3/CRF2-4/zcytor11 cells was assessed using IL-TIF-CEE protein diluted with mIL-3 free media to 50, 10, 2, 1, 0.5, 0.25, 0.13, 0.06 ng/ml concentrations. 100 μl of the diluted protein was added to the BaF3/CRF2-4/zcytor11 cells. The total assay volume is 200 μl. The assay plates were incubated at 37° C., 5% CO2 for 3 days at which time Alamar Blue (Accumed, Chicago, Ill.) was added at 20 μl/well. Plates were again incubated at 37° C., 5% CO2 for 24 hours. Alamar Blue gives a fluourometric readout based on number of live cells, and is thus a direct measurement of cell proliferation in comparison to a negative control. […] Plates were read on the Fmax™ plate reader (Molecular Devices Sunnyvale, Calif.) using the SoftMax™ Pro program, at wavelengths 544 (Excitation) and 590 (Emmission). […] The response, as measured, was approximately 15-fold over background at the high end of 50 ng/ml down to a 2-fold induction at the low end of 0.06 ng/ml.

BaF3 wild type cells = assay: Alamar Blue proliferation assay, IL-TIF activity; type: cell-based, murine
BaF3/CRF2-4 cells = assay: Alamar Blue proliferation assay, IL-TIF activity; type: cell-based, murine

B1: IL-TIF: human IL-TIF polypeptide (SEQ ID NO:15) containing C-terminal GluGlu (EE) tag, purified from BHK cells (protein, listed as Homo sapiens)
chain: MAALQKSVSSFLMGTLATSCLLLLALLVQGGAAAPISSHCRLDKSNFQQPYITNRTFMLAKEASLADNNTDVRLIGEKLFHGVSMSERCYLMKQVLNFTLEEVLFPQSDRFQPYMQEVVPFLARLSNRLSTCHIEGDDLHIQRNVQKLKDTVKKLGESGEIKAIGELDLLFMSLRNACI
modifications: C-terminal EE tag
With B1 the “LU w/o zcytoR16” value (MES 13 cells; IL-TIF 0.03 ng/ml) was 105 ± 3 LU, the “LU w/o zcytoR16” value (MES 13 cells; IL-TIF 0.3 ng/ml) was 108 ± 4 LU and the “LU w/o zcytoR16” value (MES 13 cells; IL-TIF 3 ng/ml) was 134 ± 8 LU. For the same molecule, the “LU w/o zcytoR16” value (MES 13 cells; IL-TIF 30 ng/ml) was 188 ± 16 LU, the “LU w/o zcytoR16” value (MES 13 cells; IL-TIF 300 ng/ml) was 258 ± 21 LU and the “% Cytotoxicity” value (K-562 cells; 100 ng/ml) was 16.2%. The “% Cytotoxicity” value (K-562 cells; 300 ng/ml) was 32%, the “increase of proliferation over background” value [1] was ≥ 5 fold and the “proliferative response (induction)” value ([2]; IL-TIF-CEE 0.06 ng/ml) was ~2 fold. The “proliferative response over background” value ([2]; IL-TIF-CEE 50 ng/ml) was “approximately 15 fold”, the “proliferation in response to IL-TIF-CEE” value (BaF3 wild type cells) was “did not proliferate” and the “proliferation in response to IL-TIF-CEE” value (BaF3/CRF2-4 cells) was “did not proliferate”.
